Results published in US20130136731.

Tested on: N_EGF_TCS_SK

Substance: thrombin
- cleavage of the purified construct by thrombin (N-terminal protein sequencing): The thrombin cleavage was indeed found to be true in case of the purified construct, after treatment with thrombin
